This note sets out measurements from publication PMC5800811.

Series [1] can be described thus: 10-11 d drug culture, PIPLC, anti-CD59 flow cytometry. The following applies: glycan changed form; control: untreated HEK293FF6 cells. For orientation: In flow cytometry, cells or beads pass a laser one at a time.
A short description of series [2]: PIPLC treatment, anti-CD59 flow cytometry. The following applies: glycan changed form.

B1: CD59: DMJ (protein)
parent chain: MGIQGGSVLFGLLLVLAVFCHSGHSLQCYNCPNPTADCKTAVNCSSDFDACLITKAGLQVYNKCWKFEHCNFNDVTTRLRENELTYYCCKKDLCNFNEQLENGGTSLSEKTVLLLVTPFLAAAWSLHP
Turning to B1, the “other: PIPLC resistance of surface CD59 (GPI-inositol acylation)” value (“other: PIPLC resistance of surface CD59” for short) in series [1] is listed as “no change”.

B2: CD59: sgALG6 in MOGS-KO (protein)
parent chain: B1 parent chain
For B2, in series [2] (control: MOGS-KO cells), the “other: PIPLC resistance of surface CD59” value was “decreases”.

B3: CD59: DNJ (protein)
parent chain: B1 parent chain
As for B3, in series [1], the “other: PIPLC resistance of surface CD59” value was “increases”.

B4: CD59: sgALG8 in MOGS-KO (protein)
parent chain: B1 parent chain
For B4, the “other: PIPLC resistance of surface CD59” value in series [2] (control: MOGS-KO cells) was “decreases”.

B5: CD59: KIF (protein)
parent chain: B1 parent chain
Take B5: the “other: PIPLC resistance of surface CD59” value in series [1] is recorded as “no change”.

B6: CD59: GANAB-KO (protein)
parent chain: B1 parent chain
On to B6, for which, in series [2] (control: WT HEK293 cells), the “other: PIPLC resistance of surface CD59” value is “increases”.
